Results: the supplement of paper PMC12042874
± gives the uncertainty stated by the source.

Experiments:
[1] = amyloid nucleation score (Sup35N fusion, yeast selection) (log enrichment); library NNK2; higher = more nucleation; inactive = no reads after selection
Method in brief: (§1)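 Nucleation score: DiMSum log enrichment of output over input reads, centred on the mode score of non-aggregating sequences. Only sequences with at least 100 input reads were kept. Reads came from Illumina sequencing of plasmid inserts before and after 7 days of growth at 30°C without adenine and uracil, in psi-negative yeast expressing Sup35N fused to peptides of 20 random codons after 24 hours of induction with 100 μM copper sulfate.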

[2] = amyloid nucleation score (Sup35N fusion, yeast selection) (log enrichment); library NNK3; higher = more nucleation; inactive = no reads after selection
Method in brief: as §1

Substance | amyloid nucleation score [1] | amyloid nucleation score [2]
QRLYFMIMSQPAFGTFRGIY | -0.95 ± 1.1 | 
VFKLCTSPFSCLIGRMGGTD | 9.172 ± 0.063 | 
PCVSMSVYILQLGPLGAWSR | 7.454 ± 0.054 | 
GCFPSLWWLLPGCFACYSLR | 0.721 ± 0.8 | 
GIYFIYLSM | 5.918 ± 0.059 | 
MVSLIPEMHFNVMLEKVACA | 0.562 ± 0.81 | 
WLIFLTVISISCCDQGVRF | 7.401 ± 0.028 | 
WLIMT | inactive | 
VYIWSCCVKSFESSTFDDDN | 7.972 ± 0.074 | 
LDLICMDLWFWTNTS | -0.006 ± 0.4 | 
EYSLCRMG | -0.155 ± 0.28 | 
YYYDYVCLLWDLEEVSRHAL | -0.442 ± 1 | 
MYIGELIAPVCCLRSQFTPC | 5.18 ± 0.075 | 
NRGSAPYYVTICYCNLC | 8.578 ± 0.035 | 
FLARLI | 0.45 ± 0.74 | 
VLSRFLASKRNCPVPDSLG | 0.093 ± 0.29 | 
NGHFCWPFFMARHMELREE | -0.013 ± 0.56 | 
AFTWLY | 0.942 ± 0.26 | 
TAQILLSTGSVLHLMLGGSP | 3.02 ± 0.088 | 
YSGFIMWYLFDDTAQIP | -0.781 ± 1.1 | 
RNKIMCNPYCQGRICRILSG | -0.777 ± 0.53 | 
FVVQCY | 0.998 ± 0.52 | 
GDDLPWWCISIWFFLSWLEN | inactive | 
ASRWHLIAESLSLSAVLNSF | inactive | 

Substance | amyloid nucleation score [1] | amyloid nucleation score [2]
FYVYFVCEKIES | -0.076 ± 0.79 | 
YLSTFCGVFIYLVNIPLGRA | 4.48 ± 0.058 | 
VKPHFRLGGNQNRPIPCSVS | 0.318 ± 0.45 | 
SELHGCYFHVHRRHRYRGYY | -0.015 ± 0.61 | 
TLFNMMIYSL | 1.09 ± 0.54 | 
MSCSSIRLFQDSIRLCRTSR | -0.02 ± 0.32 | 
NQSWRVVRQVCVEETRMMCG | 0.89 ± 0.23 | 
GFSVRVGVMTFDSFDWRVLF | 1.72 ± 0.15 | 
VKVVVNSSDNCVSIDWSYGR | 2.14 ± 0.17 | 
LNVTSLLIVRLRCVFLHPTD | 2.15 ± 0.44 | 
AFCAGVQAPEFPNLA | 0.437 ± 0.65 | 
ERTVKETFSTGNSYEGTGRR | -0.468 ± 0.53 | 
GFFLSNFSVFYKCIRSVVDT | -1.81 ± 0.62 | 
SIFITATCNVH | inactive | 
ALLTVFFNLVVVWDVKAVTP | -0.159 ± 1 | 
VLSNSEYVFTNR | -0.5 ± 0.28 | 
TKRMLERVTFFVHWCWLWSV | 1.09 ± 0.15 | 
NEQIW | 0.023 ± 0.39 | 
LVNWFVDYRSDVSHLQTGKV | 1.08 ± 0.36 | 
DHMRHGCGYHLWFSGLSWRF | inactive | 
DKPTCETTV | -0.659 ± 0.49 | 
PTCSNHCFFYLNHTN | 3.66 ± 0.12 | 
FSPTGSITWNCIRYYLVTRS | -0.279 ± 0.33 | 
VSDLRRMKDGC | inactive | 

Substance | amyloid nucleation score [1] | amyloid nucleation score [2]
STGRNMKPSLNASFLRLRMF | -0.228 ± 1.1 | 
NIARNFRYRM | -1.86 ± 1.1 | 
VIRRGMFIQPAFAKMLSAWF | -0.231 ± 1 | 
SDAVFFLLSNGNRPPRAAMS | 0.155 ± 0.29 | 
FWPSQNYRHFLTHRGRRRRS | 0.552 ± 0.66 | 
EMCCTENCLEGSKVLAQFYC | -1.02 ± 0.61 | 
FSSEIRTLGQELVFGVISKA | -0.307 ± 0.76 | 
TLSKYCEDKFEWFCIAVICR | 6.95 ± 0.04 | 
VIFAHGVFGECWFVYSLVFS | -0.784 ± 0.76 | 
RKLLYCCEVATWCRGETSER | 4.33 ± 0.089 | 
ERRRFRVDRKVLAFFYVSGT | 0.046 ± 0.37 | 
KVFRSVGMFVCP | 1 ± 0.29 | 
MDFYYLGSVCHVDLLAQYLV | inactive | 
ILINCSRWEGRTSCVTLAQQ | 2.27 ± 0.12 | 
FSGDGCRDSA | 0.307 ± 0.56 | 
RHYLRRCEEDNCHPKYFVRY | -0.439 ± 0.76 | 
VFCGFDIVFCKRAFGSKIYL | -0.632 ± 1.1 | 
KVLRCYGDHFHHANSRTCLR | -1.08 ± 0.76 | 
PSVVVSNTYIGSPGYKRIWF | 7.844 ± 0.071 | 
IQACYGFQSNDVPLISCT | -1.78 ± 0.49 | 
STELFLS | -0.251 ± 0.28 | 
VYRFSAAARLDWIDRVNLCN | 0.868 ± 0.58 | 
LWLMVCMMYM | 2.09 ± 0.15 | 
IRLDTKDGCRYN | inactive | 

Substance | amyloid nucleation score [1] | amyloid nucleation score [2]
DHVYICSSFAPKSTAMLC | 1.55 ± 0.38 | 
FFQEGYNRVPS | -0.336 ± 0.62 | 
DQVLHCSLDQSVGGSDQL | inactive | 
HKDSKTGSIYHQWMDQREIE | -1.1 ± 0.48 | 
GIWNLQYRREV | 0.596 ± 0.32 | 
SNLFCLNTSLVQAVMMACPI | 0.113 ± 1.1 | 
DMGNDLRDRVRGFSALMLWR | inactive | 
SKRVDIKHSMRARDGLNRFW | -0.226 ± 1.1 | 
YANMGYQGLIRGIGVLDWIK | -0.119 ± 0.36 | 
NSLLNFWEVTLLRGGTHMVF | -0.675 ± 0.29 | 
IIWVHSTIPSRVNR | -0.183 ± 1 | 
RLGYILNFELNYLII | 0.856 ± 0.17 | 
LLKFRVCPW | 4.5 ± 0.086 | 
FWDAWSDDRRERWRPCPPRT | 1.45 ± 0.38 | 
MEYPRLRSHNTAIFTLFQRP | 5.38 ± 0.055 | 
FLFSFKDPKHMDITCKAVYA | -0.433 ± 0.78 | 
DGEYPHQYSLEVLLLRLRH | 5.071 ± 0.049 | 
PRRMNRGYQNDYFISTVFSV | -0.711 ± 0.64 | 
SWGNLWKSYCAK | -0.55 ± 0.49 | 
AISSEGELLAVDFWNSNLDP | -0.509 ± 0.23 | 
VHWSWIAVAGHKDRAPGVRR | 1.21 ± 0.3 | 
ILTTCMNAKKLNLFGYGL | -0.291 ± 0.63 | 
RSSVWGMRELIERKNTSGAW | 1.49 ± 0.19 | 
LWKLYLTVSRNLAVGISGGL | inactive | 

Substance | amyloid nucleation score [1] | amyloid nucleation score [2]
NFWYCYTLSDNNYFF | 7.41 ± 0.038 | 
CKYVYFRPTRASSSWHVIFL | 2.93 ± 0.076 | 
NEMGFSHISGEMCAP | -0.882 ± 0.24 | 
WEDGTFEV | -0.219 ± 0.61 | 
NAVEIERNLLQIFQLLNSGE | -0.739 ± 0.64 | 
NKLYFVGKWNGFVSSVCSLV | -0.942 ± 0.41 | 
DGGNDWRTKYSGTPVVWGTV | 1.73 ± 0.13 | 
RYGLLYSTSLACWFGS | 4.36 ± 0.058 | 
CITFS | -0.817 ± 0.46 | 
PLNGIRFWSDVNLSRDGSSM | -0.025 ± 1.1 | 
RLIDCVVVRVFINNVMLPAY | 5.45 ± 0.056 | 
GLREKDN | -0.036 ± 0.32 | 
MYKGA | 0.595 ± 0.62 | 
RYNNYTSESGPCN |  | inactive
GQTILC |  | inactive
SELLPNYTKGVLTGDIYSRY |  | inactive
MPYVSKVYHYRYT |  | inactive
LVVCGVRWSMFIGIS |  | inactive
YFVIIYWLAPHHSNLLISFP |  | inactive
SPVRVDWFSKRFSGYVMRTM |  | inactive
CQFVKVMCLHSYILRPSPPP |  | inactive
CRSIWITPGNYAFALSFLMR |  | inactive
GQDEPDCVG |  | 0.014 ± 0.52
RWSGHTWTCVQDRMVCICNS |  | inactive

Substance | amyloid nucleation score [1] | amyloid nucleation score [2]
RGCCKRPDGSKLVFIQMLIS |  | inactive
HSLTATINTGKLYKSVSKHG |  | inactive
VLIDYYMMSTSN |  | inactive
FLNLNNMGLSYMAVSLVEG |  | inactive
HNGARG |  | inactive
SNRVRMSFLLADVYCNQTEV |  | -0.183 ± 0.42
FRGKISKEPNCVVYFQQGRP |  | inactive
LWAIMFRYSDIAKLTGWRVV |  | -0.069 ± 0.82
MVFSAICITHFTKI |  | inactive
GDMVCFVLMKALV |  | inactive
RVIYG |  | inactive
MNMGYFRFNL |  | inactive
FASIYNFHDRIVSLRDQGR |  | inactive
DRYYDSLC |  | inactive
RNNMKTCNVMCIFSNECHCR |  | 2.85 ± 0.055
SVLHVLYCVGSECVYVSSSR |  | inactive
LLELRVVRLRTNVAVVHIYV |  | inactive
SINDLGLWNVTVKFLCK |  | -0.037 ± 0.63
LRMFSRVGRNRCYNITSFTC |  | inactive
YFKWVFKSYKPV |  | 1.35 ± 0.12
NILEYYLLTGLYVAFLYLNR |  | inactive
AVEEHLIHLSCCVQAVNRRV |  | 2.36 ± 0.074
TRWLCLDKLHLFLLCGKIAI |  | inactive
MAFYQHDILTMFLYRFRDAR |  | inactive

Substance | amyloid nucleation score [1] | amyloid nucleation score [2]
SFKAWIWSSMIAVGLTQRYS |  | inactive
LEMGSGSHFSGDSWAHPLRG |  | inactive
QWSCGFMYSFKHLGGDCYNL |  | inactive
SKPSYFHNFLFDKMSDRLCT |  | inactive
IVNLL |  | inactive
MVLRVLNYFINFCATVLAGS |  | inactive
YLLDRLRVSDGYPLQSPWTT |  | inactive
LSWIWNLANSVKDNMGGMRM |  | inactive
EALGKSFLVKFKTIKYLRLA |  | inactive
MPGLAVFGCPRRCCGFRGLV |  | inactive
MSTLEMHYGPSFSCLYNMQD |  | 1.89 ± 0.065
MMLLGVRVED |  | inactive
RNTVSSTQEIWRLPISLEKT |  | inactive
PPCYKI |  | inactive
YITKLTGWTIE |  | inactive
MYVYSYQVYNLTCARLAKK |  | inactive
RLGVVASPLHSTCIGNLLHG |  | inactive
DIRYLNNFDSCQYGRGFLAA |  | inactive
CFVAILNVIFGWSY |  | 1.43 ± 0.069
LWIPLWNVRKVYIIGQCLT |  | inactive
